Laboratory results reported in US20050064384A1, “Recruitment of mst1 or mst2 protein kinase to induce apoptosis in eukaryotic cells” (priority 2001, published 2005).

Target: FLAG-tagged wild type (wt) MST1 (mouse) (UniProt Q9JI11)
Assay: cell-based or functional assay

FLAG-tagged wild type (wt) MST1 (mouse), sequence (Q9JI11 other isoform, or with tags, fused parts or gaps limits assumed): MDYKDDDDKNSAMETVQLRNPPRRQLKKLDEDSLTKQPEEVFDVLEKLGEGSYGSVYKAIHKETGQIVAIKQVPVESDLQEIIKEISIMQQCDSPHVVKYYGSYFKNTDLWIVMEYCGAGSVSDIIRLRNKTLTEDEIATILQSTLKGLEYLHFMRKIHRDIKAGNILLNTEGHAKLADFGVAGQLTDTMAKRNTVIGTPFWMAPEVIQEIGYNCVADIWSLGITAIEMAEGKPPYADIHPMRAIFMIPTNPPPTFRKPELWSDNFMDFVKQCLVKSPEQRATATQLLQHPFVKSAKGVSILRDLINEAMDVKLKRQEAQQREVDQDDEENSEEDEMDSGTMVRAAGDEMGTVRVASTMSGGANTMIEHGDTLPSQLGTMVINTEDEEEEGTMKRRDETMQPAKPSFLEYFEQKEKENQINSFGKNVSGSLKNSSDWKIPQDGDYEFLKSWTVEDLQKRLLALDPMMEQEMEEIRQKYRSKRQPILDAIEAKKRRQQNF

NORECAAX (NORE fused to the Ki-Ras4B membrane-association CAAX segment) (from UniProt Q5EBH1 1-413)
fraction of annexin V-stained NIH3T3 cells: 50%
